From patent US20250340595A1 (published 2025) come the findings set out here.

Starred links: 1 amine or outer side, 2 acyl side, 3 side chain; linkers in the order of their positions; H or OH if unused. Positions of bridges follow the written chain, without caps; N, C: chain ends. No end group written: not given here. TATA = O=C(CC[*:1])N1CN(C(=O)CC[*:2])CN(C(=O)CC[*:3])C1

By IC50 is commonly meant the point on the concentration scale where inhibition reaches its midpoint. The low end stands for higher potency, the high end for lower potency. A word on the Kd: it is a measure of binding affinity in units of concentration.

Assay [1] addresses Human TfR1 protein (R&D Systems, 2474-TR or Acro Biosystems, CD1-H5243) (human, UniProt P02786 89-760). Kind of assay: Alpha assay, competition with labelled transferrin.
In assay [2] the target is T1, Recombinant cynomolgus TfR1, His6-tagged (a.a. 89-760) (cynomolgus, UniProt H9EXL1 89-760 (rhesus entry)).
T1 construct: range 89-760; same product number named for FP and SPR; also called Cyno TfR1; Acro Biosystems TFR-C524a
Kind of assay: SPR, TfR1 on chip.

The target in assay [3] is T2, Recombinant human TfR1, His6-tagged (a.a. 89-760) (human, UniProt P02786 89-760).
T2 construct: range 89-760; captured and coupled on an NTA chip for SPR; also called transferrin receptor 1; CD71
Kind of assay: SPR, TfR1 on chip. In general terms: In SPR one partner is held on a chip, and binding of the other changes the refractive index at the surface.

Chain of Human TfR1 protein (R&D Systems, 2474-TR or Acro Biosystems, CD1-H5243) (P02786 89-760 limits assumed): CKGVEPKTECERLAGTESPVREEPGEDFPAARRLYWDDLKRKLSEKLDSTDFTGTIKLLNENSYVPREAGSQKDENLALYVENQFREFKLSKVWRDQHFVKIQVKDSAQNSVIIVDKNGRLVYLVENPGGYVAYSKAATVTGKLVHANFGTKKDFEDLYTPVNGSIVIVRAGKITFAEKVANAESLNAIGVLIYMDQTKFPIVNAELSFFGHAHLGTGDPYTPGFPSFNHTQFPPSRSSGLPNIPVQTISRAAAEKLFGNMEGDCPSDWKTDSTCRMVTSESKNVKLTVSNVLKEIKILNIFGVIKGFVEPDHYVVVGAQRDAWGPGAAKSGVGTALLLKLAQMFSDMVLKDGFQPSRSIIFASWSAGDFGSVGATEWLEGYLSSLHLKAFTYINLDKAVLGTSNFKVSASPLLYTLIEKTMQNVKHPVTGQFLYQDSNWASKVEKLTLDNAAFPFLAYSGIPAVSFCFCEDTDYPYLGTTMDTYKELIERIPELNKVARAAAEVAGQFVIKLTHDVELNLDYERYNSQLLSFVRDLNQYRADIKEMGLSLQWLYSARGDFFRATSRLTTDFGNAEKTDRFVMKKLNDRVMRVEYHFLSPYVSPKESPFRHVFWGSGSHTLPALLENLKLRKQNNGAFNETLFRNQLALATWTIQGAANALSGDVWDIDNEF
T2 sequence (P02786 89-760 limits assumed): as above
T1 sequence (chain, as listed by the source): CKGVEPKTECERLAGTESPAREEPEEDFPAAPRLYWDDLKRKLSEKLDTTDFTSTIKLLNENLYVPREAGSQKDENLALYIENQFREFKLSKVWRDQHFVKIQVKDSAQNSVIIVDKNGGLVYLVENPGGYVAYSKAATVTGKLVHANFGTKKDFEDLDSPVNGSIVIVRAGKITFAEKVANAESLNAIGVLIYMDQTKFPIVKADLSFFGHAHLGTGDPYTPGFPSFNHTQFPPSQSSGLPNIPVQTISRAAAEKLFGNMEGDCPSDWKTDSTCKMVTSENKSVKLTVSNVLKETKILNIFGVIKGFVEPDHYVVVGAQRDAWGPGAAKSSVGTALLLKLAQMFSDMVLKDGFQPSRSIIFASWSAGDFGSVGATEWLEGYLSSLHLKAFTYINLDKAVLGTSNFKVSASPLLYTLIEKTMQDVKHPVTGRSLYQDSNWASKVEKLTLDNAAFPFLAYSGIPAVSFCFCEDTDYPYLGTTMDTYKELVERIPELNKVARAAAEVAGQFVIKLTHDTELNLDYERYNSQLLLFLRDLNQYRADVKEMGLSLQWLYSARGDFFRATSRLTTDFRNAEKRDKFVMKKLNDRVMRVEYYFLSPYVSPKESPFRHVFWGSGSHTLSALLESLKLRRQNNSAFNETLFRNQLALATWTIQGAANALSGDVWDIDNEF

B1: BCY12452 (peptide)
peptide: ACREFFDTCGLAFIECA-NH2
modifications: linker 2-9-16 via TATA; N-terminus assumed
SMILES: CC[C@H](C)[C@@H]1NC(=O)[C@H](Cc2ccccc2)NC(=O)[C@H](C)NC(=O)[C@H](CC(C)C)NC(=O)CNC(=O)[C@@H]2CSCCC(=O)N3CN(CN(C3)C(=O)CCSC[C@@H](C(=O)N[C@@H](C)C(N)=O)NC(=O)[C@H](CCC(=O)O)NC1=O)C(=O)CCSC[C@H](NC(=O)[C@H](C)N)C(=O)N[C@@H](CCCNC(=N)N)C(=O)N[C@@H](CCC(=O)O)C(=O)N[C@@H](Cc1ccccc1)C(=O)N[C@@H](Cc1ccccc1)C(=O)N[C@@H](CC(=O)O)C(=O)N[C@@H]([C@@H](C)O)C(=O)N2
On to B1, for which, in assay [1], the IC50 worked out at 1220 nM.
The same measure, in the same setting: then ACLEACYDGVYWYSCA (3 Cys on TATA) [BCY12454], with 893 nM.
In the case of ACALCNDWTLPWHHCA (3 Cys on TATA) [BCY12455], the IC50 in assay [1] was found to be 673 nM. Also, the Kd in assay [2] came out at 42400 nM; in assay [3], 65600 nM.
